Experimental data taken from PMC4302597.

Molecular target: tubulin of PC12 cells (microtubule (MT) fraction, soluble tubulin (ST) fraction or cell lysate) (rat (endogenous in PC12)) (UniProt P68370)
Assay: co-IP; MT fraction of PC12 cells, untreated or treated with 100 ng/mL NGF for three days; 100 μL aliquots (~0.25–1 mg/mL) with anti-α tubulin or anti-Gβ for 1 h at 4°C, then protein A-sepharose overnight at 4°C; immunoblot for Gβ or tubulin

fold increase of co-immunoprecipitation in NGF-treated over untreated cells: 2 to 3 fold
Substance: βγ subunit of heterotrimeric G proteins (Gβγ), endogenous in PC12 cells (from UniProt P54311 1-340) (complex)
